{"source": "patent US7049079B1", "about": "“Coupling factor 6 inhibitor and potentiator and use thereof” (Daiichi Suntory Pharma Co.,Ltd., priority 1999, dated 2006)", "molecules": {"B1": {"name": "rCF6: rat coupling factor 6, a 76 amino acid subunit of H+ ATP synthase (SEQ ID NO:2), recombinantly produced (protein)", "chain": "NKELDPVQKLFLDKIREYKAKRLASGGPVDTGPEYQQEVDRELFKLKQMYGKGEMDKFPTFNFEDPKFEVLDKPQS", "modifications": "Rat"}}, "key": {"[1]": {"system": "release of arachidonic acid from HUVEC (PLA2)", "experiment": "Release of [3H]-labeled arachidonic acid from HUVEC", "assay_type": "cell-based, human", "conditions": "for inhibition of release of arachidonic acid from HUVEC by PLA2 inhibitors: 40 μM AACOCF3, 1 μM OPC, 1 μM BEL", "method": "HUVEC were cultured for 24 hours in the presence of [^3H]-labeled arachidonic acid. Then the medium was replaced by DMEM and the culture was continued in the presence of […] of CF6 at 37° C. for an additional 30 minutes. Then the release of the [^3H]-labeled arachidonic acid into the liquid culture was examined. […] The same test was carried out in the presence of 1 μM of bradykinin.\nNext, the effects of a cPLA2 inhibitor (40 μM of AACOCF3: arachidonic acid […]), an sPLA2 inhibitor (1 μM of OPC; oleyloxyethylphosphorylcholine) and an iPLA2 inhibitor (1 μM of BEL: […]) of inhibiting the release of arachidonic acid form HUVEC were examined. […] Namely, the PLA2 participating in the release of arachidonic acid is cPLA2 (FIGS. 20 and 21)."}, "[2]": {"system": "PGI2 production of human umbilical venal endothelial cells (HUVEC)", "experiment": "Inhibition of PGI2 production (6-keto-PGF1α secreted into the medium) in HUVEC", "assay_type": "cell-based", "method": "The activity of inhibiting the PGI2 production was evaluated by measuring the stable metabolite of PGI2 (6-keto-PGF1α) secreted into the medium of smooth muscle cells collected from SHR mesenteric artery or human umbilical venal endothelial cells (HUVEC). Namely, the smooth muscle cells collected from SHR mesenteric artery were subcultured in a Dulbecco's modified Eagle medium (DMEM) containing 10% (v/v) of fetal calf serum until these cells attained the confluent state. HUVEC were proliferated in a synthetic medium (HuMedia, Kurabo Industries) containing 2% (v/v) of fetal calf serum, 10 ng/ml of EGF, 5 ng/ml of bFGF, 1 μg/ml of hydrocortisone and 10 μg/ml of heparin. The smooth muscle cells collected from SHR mesenteric artery or HUVEC were incubated for 30 minutes in the DMEM medium containing the sample to be analyzed and 6-keto-PGF1α secreted into the medium during the incubation period was determined.\nHUVEC were cultured at 37° C. for 30 minutes in the DMEM containing 1, 10 and 100 nM of rCF6 prepared in Referential Example 2 and thus the inhibition of the PGI2 production by CF6 was examined. The production of PGI2 was measured with the guidance of the amount of 6-keto-PGF1α, which is a stable metabolite of PGI2, secreted into the medium. […] The same test was carried out in the presence of 1 μM of bradykinin.\nFurther, 10 nM of CF6 inhibited the increase in the PGI2 production due to 2 μg/ml of ionomycin but not the increase therein due to 10 ng/ml of arachidonic acid and 10 ng/ml of PGH2."}, "[3]": {"system": "rats with normal blood pressure (WKY)", "experiment": "Arterial blood pressure of anesthetized WKY, measured in the open manner from the carotid artery", "assay_type": "in vivo, rat", "conditions": "WKY 15 weeks of age; rCF6 0.3, 1.0, 3.0 μg/kg bolus into femoral vein", "method": "(§1) Blood pressure was measured in the open manner by inserting catheters directly into the aorta of rats anesthetized with 75 mg/kg of ketamine and 15 mg/kg of xylazine hydrochloride. Namely, two polyethylene catheters filled with physiological saline containing 20 U/ml of heparin were inserted respectively into the left carotid artery and the left femoral vein. Then the catheter inserted into the left carotid artery was connected to a pressure detector (Carrier Amplifier AP-601G, Nihon Kohden Co.). Each sample was dissolved in 200 μL of physiological saline and then administered via the vena cava.\n(§2) SHR and WKY each 16 weeks of age were anesthetized and the anti-rCF6 antibody (0.3, 1.0 and 3.0 μg/kg) was administered by bolus injection into the femoral vein. Then the arterial blood pressure was measured in the open manner from the carotid artery.\n(§3) Effects of the anti-rCF6 antibody on the effect of bradykinin of lowering rat blood pressure were examined. SHR and WKY each 16 weeks of age were anesthetized and bradykinin (0.3, 1.0 and 3.0 μg/kg) was cumulatively administered by bolus injection into the femoral vein. Then the arterial blood pressure was measured in the open manner from the carotid artery. […]\n(§4) Effects of rCF6 on rat blood pressure were examined. […] Then the arterial blood pressure was measured in an open manner from the carotid artery."}, "[4]": {"system": "spontaneously hypertensive rats (SHR)", "experiment": "Arterial blood pressure of anesthetized SHR, measured in the open manner from the carotid artery", "assay_type": "in vivo, rat", "conditions": "SHR 15 weeks of age; rCF6 0.3, 1.0, 3.0 μg/kg bolus into femoral vein", "method": "as §1, §2, §3, §4"}}, "data": [{"molecule": "CCCCC/C=C\\C/C=C\\C/C=C\\C/C=C\\CCCC(=O)C(F)(F)F", "note": "[AACOCF3, arachidonic acid 3-fluoromethyl ketone]", "values": [{"measurement": "inhibition of release of arachidonic acid from HUVEC by PLA2 inhibitors", "setting": "[1]", "result": "inhibited the release of arachidonic acid"}]}, {"molecule": "O=C1O/C(=C/Br)CCC1c1cccc2ccccc12", "note": "(stereo not drawn) [BEL, bromoenolcholine]", "values": [{"measurement": "inhibition of release of arachidonic acid from HUVEC by PLA2 inhibitors", "setting": "[1]", "result": "cPLA2 inhibitor alone inhibited"}]}, {"molecule": "CCCCCCCC/C=C\\CCCCCCCCOCCOP(=O)([O-])OCC[N+](C)(C)C", "note": "[OPC, oleyloxyethylphosphorylcholine]", "values": [{"measurement": "inhibition of release of arachidonic acid from HUVEC by PLA2 inhibitors", "setting": "[1]", "result": "cPLA2 inhibitor alone inhibited"}]}, {"molecule": "B1", "values": [{"measurement": "increase in PGI2 production due to PGH2", "setting": "[2]; 10 nM CF6, 10 ng/ml PGH2", "result": "not"}, {"measurement": "increase in PGI2 production due to arachidonic acid", "setting": "[2]; 10 nM CF6, 10 ng/ml arachidonic acid", "result": "not"}, {"measurement": "increase in PGI2 production due to ionomycin", "setting": "[2]; 10 nM CF6, 2 μg/ml ionomycin", "result": "inhibited"}, {"measurement": "PGI2 production (6-keto-PGF1α)", "setting": "[2]; HUVEC, 1, 10 and 100 nM rCF6, 37° C., 30 minutes", "result": "dose-dependently inhibited"}, {"measurement": "increase in PGI2 production due to bradykinin", "setting": "[2]; HUVEC, 1, 10 and 100 nM rCF6, in the presence of 1 μM bradykinin", "result": "dose-independently inhibited"}, {"measurement": "average arterial blood pressure", "setting": "[3]", "result": "dose-dependently increased"}, {"measurement": "average arterial blood pressure", "setting": "[4]", "result": "dose-dependently increased"}, {"measurement": "release of [3H]-labeled arachidonic acid", "setting": "[1]; HUVEC, 1, 10 and 100 mM CF6, 37° C., 30 minutes", "result": "dose-dependently inhibited"}, {"measurement": "bradykinin-promoted release of [3H]-labeled arachidonic acid", "setting": "[1]; HUVEC, CF6 1, 10 and 100 mM, in the presence of 1 μM bradykinin", "result": "dose-dependently inhibited"}]}]}
